# Test results as given in the supplement of paper PMC9112550, “Optimization of the antimicrobial peptide Bac7 by deep mutational scanning” (BMC Biology, 2022).
# Test system: Escherichia coli TOP10
# Assay: shrunken log2 fold change of peptide-encoding DNA abundance (4.5 h post-induction vs induction); higher = less antimicrobial activity (less host growth inhibition)
# Details: time post-induction: 4.5 h; library: site-saturation at positions 5, 18, 19, 20
# 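Also: peptides expressed intracellularly from a pBAD plasmid library in pooled LB shake-flask culture, induced with 0.3% L-arabinose, DNA abundance read by NGS, three biological replicates, DESeq2 with apeglm shrinkage.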
row,Sequence,shrunken log2 fold change
1,RRIRERPPRLPRPRPRPQWQPRP,-0.109
2,RRIRVRPPRLPRPRPRPKCIPRP,0.0104
3,RRIRHRPPRLPRPRPRPHDAPRP,-0.357
4,RRIRERPPRLPRPRPRPAAYPRP,-0.0475
5,RRIRRRPPRLPRPRPRPTFGPRP,0.337
6,RRIRMRPPRLPRPRPRPPIIPRP,-0.306
7,RRIRSRPPRLPRPRPRPWHRPRP,-0.024
8,RRIRIRPPRLPRPRPRPKYHPRP,-0.532
9,RRIRDRPPRLPRPRPRPDKAPRP,-0.00804
10,RRIRDRPPRLPRPRPRPQNSPRP,-0.24
11,RRIRGRPPRLPRPRPRPIYIPRP,-0.0529
12,RRIRIRPPRLPRPRPRPFQSPRP,-0.469
13,RRIRRRPPRLPRPRPRPIHVPRP,0.03
14,RRIRSRPPRLPRPRPRPGHQPRP,-0.167
15,RRIRARPPRLPRPRPRPHVTPRP,0.0281
16,RRIRMRPPRLPRPRPRPEEGPRP,0.0237
17,RRIRIRPPRLPRPRPRPSCVPRP,-0.544
18,RRIRHRPPRLPRPRPRPWMMPRP,-0.463
19,RRIRGRPPRLPRPRPRPSTFPRP,0.112
20,RRIRVRPPRLPRPRPRPSMFPRP,-0.245
21,RRIRQRPPRLPRPRPRPMSSPRP,-0.0871

row,Sequence,shrunken log2 fold change
1,RRIRIRPPRLPRPRPRPPQKPRP,0.0534
2,RRIRDRPPRLPRPRPRPWGAPRP,0.305
3,RRIRSRPPRLPRPRPRPLFWPRP,0.132
4,RRIRYRPPRLPRPRPRPEKYPRP,-0.00973
5,RRIRGRPPRLPRPRPRPDMCPRP,1.27
6,RRIRIRPPRLPRPRPRPGRPPRP,0.398
7,RRIRMRPPRLPRPRPRPLYKPRP,-0.134
8,RRIRTRPPRLPRPRPRPQNNPRP,-0.716
9,RRIRHRPPRLPRPRPRPGLPPRP,0.118
10,RRIRMRPPRLPRPRPRPGKVPRP,0.101
11,RRIRQRPPRLPRPRPRPLDGPRP,0.237
12,RRIRYRPPRLPRPRPRPPKCPRP,-0.813
13,RRIRYRPPRLPRPRPRPTEWPRP,-0.0714
14,RRIRTRPPRLPRPRPRPSDQPRP,-0.183
15,RRIRKRPPRLPRPRPRPQLLPRP,0.261
16,RRIRGRPPRLPRPRPRPQKVPRP,0.129
17,RRIRLRPPRLPRPRPRPCHGPRP,-0.0309
18,RRIRPRPPRLPRPRPRPIMDPRP,-0.00126
19,RRIRLRPPRLPRPRPRPFGDPRP,-0.186
20,RRIRGRPPRLPRPRPRPILFPRP,0.257
21,RRIRARPPRLPRPRPRPTCGPRP,0.512

row,Sequence,shrunken log2 fold change
1,RRIRSRPPRLPRPRPRPTQMPRP,0.502
2,RRIRIRPPRLPRPRPRPYSMPRP,-0.436
3,RRIRGRPPRLPRPRPRPEYSPRP,0.445
4,RRIRGRPPRLPRPRPRPSSYPRP,-0.128
5,RRIRRRPPRLPRPRPRPDDKPRP,0.0703
6,RRIRARPPRLPRPRPRPYSIPRP,-0.374
7,RRIRWRPPRLPRPRPRPEEYPRP,0.113
8,RRIRHRPPRLPRPRPRPHYQPRP,0.0121
9,RRIRKRPPRLPRPRPRPHIFPRP,-0.0478
10,RRIRSRPPRLPRPRPRPIYWPRP,-0.0771
11,RRIRYRPPRLPRPRPRPTRKPRP,0.00746
12,RRIRKRPPRLPRPRPRPHGYPRP,0.0773
13,RRIRNRPPRLPRPRPRPSCHPRP,1.83
14,RRIRCRPPRLPRPRPRPDFVPRP,-0.196
15,RRIRCRPPRLPRPRPRPHRGPRP,0.0133
16,RRIRVRPPRLPRPRPRPVEKPRP,0.265
17,RRIRRRPPRLPRPRPRPDYNPRP,-0.0973
18,RRIRIRPPRLPRPRPRPHHMPRP,-1.2
19,RRIRWRPPRLPRPRPRPINRPRP,-0.328
20,RRIRARPPRLPRPRPRPHMWPRP,-0.000358
